How the values were obtained:
[1] = biological target: T1, recombinant wildtype human PI31 (Proteasome Inhibitor of 31,000 Da) (human, UniProt Q92530 1-271); experiment: cryo-EM structure; purified hPI31 and bovine 20S mixed at a molar ratio of 5:1, 37 °C for 1 h in 20 mM Tris, pH 7.5, 5 mM MgCl2, 100 mM KCl, 1 mM DTT; latent closed-gate 20S; C1 map at 2.54 Å; details: both partners purified
T1 construct: PI31, product of the PSMF1 gene, human; The methods name a pET28a(+) vector with N-terminally tagged wildtype hPI31 and 'His-PI31 (wildtype)' for mass photometry; Exists in a monomer-dimer equilibrium; also called hPI31; hPI31^WT; source: E. coli, purified; not shown: His tag, N-terminal, kept
T1 sequence (looked up): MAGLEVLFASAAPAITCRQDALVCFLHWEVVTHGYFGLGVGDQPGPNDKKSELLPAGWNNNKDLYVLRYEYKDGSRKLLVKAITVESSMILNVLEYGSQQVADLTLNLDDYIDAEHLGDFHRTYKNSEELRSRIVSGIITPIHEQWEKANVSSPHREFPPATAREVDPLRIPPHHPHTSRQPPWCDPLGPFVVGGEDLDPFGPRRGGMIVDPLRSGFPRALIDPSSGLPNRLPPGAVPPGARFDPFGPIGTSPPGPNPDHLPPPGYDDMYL

[2] = biological target: the molecule itself; experiment: mass photometry; monomer to dimer; His-PI31 diluted to 40 nM total monomer in PBS, recorded immediately after mixing (TwoMP, Refeyn); peaks at 36 to 37 and 56 to 59 kDa
[3] = biological target: bovine 20S proteasome (bovine, UniProt Q2YDE4 1-246; Q3T0Y5 1-234; Q3ZCK9 1-261; Q3ZBG0 1-248; Q5E987 1-241; Q3T0X5 …); experiment: cell-based or functional assay

B1: β5 subunit of the bovine 20S proteasome (natural protein, UniProt Q32KL2 60-263, looked up)
chain: TTTLAFKFRHGVIVAADSRATAGAYIASQTVKKVIEINPYLLGTMAGGAADCSFWERLLARQCRIYELRNKERISVAAASKLLANMVYQYKGMGLSMGTMICGWDKRGPGLYYVDSEGNRISGATFSVGSGSVYAYGVMDRGYSYDLEVEEAYDLARRAIYQATYRDAYSGGSVSLYHVREDGWIRVSSDNVADLHDKYSGSTH
notes: Stood in the assay as a subunit of the assembled 20S proteasome; also called β5 active site; β5 catalytic site; source: purified from bovine red blood cells, as part of the 20S proteasome
- binding result [1]: binds

B2: β2 subunit of the bovine 20S proteasome (natural protein, UniProt Q2TBP0 44-277, looked up)
chain: TTIAGVVYKDGIVLGADTRATEGMVVADKNCSKIHFISPNIYCCGAGTAADTDMTTQLISSNLELHSLSTGRLPRVVTANRMLKQMLFRYQGYIGAALVLGGVDVTGPHLYSIYPHGSTDKLPYVTMGSGSLAAMAVFEDKFRPDMEEEEAKKLVSEAIAAGIFNDLGSGSNIDLCVISKSKLDFLRPYSVPNKKGTRFGRYRCEKGTNAVLTEKVTTLEIEVLEETVQTMDTS
notes: Stood in the assay as a subunit of the assembled 20S proteasome; also called β2 active site; β2 catalytic site; source: purified from bovine red blood cells, as part of the 20S proteasome
- binding result [1]: binds

B3: human PI31 V6R dimerization mutant (natural protein, UniProt Q92530 1-271, looked up)
chain: MAGLERLFASAAPAITCRQDALVCFLHWEVVTHGYFGLGVGDQPGPNDKKSELLPAGWNNNKDLYVLRYEYKDGSRKLLVKAITVESSMILNVLEYGSQQVADLTLNLDDYIDAEHLGDFHRTYKNSEELRSRIVSGIITPIHEQWEKANVSSPHREFPPATAREVDPLRIPPHHPHTSRQPPWCDPLGPFVVGGEDLDPFGPRRGGMIVDPLRSGFPRALIDPSSGLPNRLPPGAVPPGARFDPFGPIGTSPPGPNPDHLPPPGYDDMYL
notes: PI31, product of the PSMF1 gene, human; point mutation V6R in the FP domain, made on the pET28a(+)-HisPI31^wt template; also called hPI31^V6R; source: E. coli BL21 Star (DE3), purified (Ni-NTA); not shown: His tag, N-terminal, kept
- [monomer]/[M]T ratio [2]: 0.54
- [monomer] at 50% inhibitory activity against SDS-activated 20S (50 nM), PI31 up to 10-fold molar excess [3]: 108 nM

B4: human PI31 C-terminal domain, residues 152-271 (domain or fragment, UniProt Q92530 152-271, looked up)
chain: SSPHREFPPATAREVDPLRIPPHHPHTSRQPPWCDPLGPFVVGGEDLDPFGPRRGGMIVDPLRSGFPRALIDPSSGLPNRLPPGAVPPGARFDPFGPIGTSPPGPNPDHLPPPGYDDMYL
- [monomer] at 50% inhibitory activity against SDS-activated 20S (50 nM), PI31 up to 10-fold molar excess [3]: 200 nM
- inhibition of the catalytic activity of each subunit type (β1, β2, β5 peptide substrates), PI31 at 10- to 20-fold molar excess [3]: > 95%
